Source: patent publication US9187525B2, “Methods of treating ophthalmic diseases using NPR-B agonists” (Shire Orphan Therapies GmbH, dated 2015)
Numbered stars: 1 amine (or outer) side, 2 acyl side, 3 side chain; on linkers, the order of the positions; unused ones are H or OH. Square brackets hold non-standard residues; d marks the D form. Ends that are not written are not given here. * marks the point of attachment. Tap(2Me) = (2S,4R)-4-(dimethylamino)pyrrolidine-2-carboxylic acid, CN(C)[C@@H]1C[C@@H](C(=O)[*:2])N([*:1])C1; Ebe = (R)-2-amino-3-(methylsulfanyl)propanoic acid, CSC[C@H](N[*:1])C(=O)[*:2]; Eal = rac-imidazolidine-2-carboxylic acid, O=C(C1N([*:1])CCN1[*:3])[*:2]; 6072‑OH = rac-7-hydroxy-dodecanoic acid, CCCCCC(O)CCCCCC(=O)*; Pro(trans-4-NH2) = O=C([C@@H]1C[C@@H](N[*:3])CN1[*:1])[*:2]; 6071‑OH = rac-6-hydroxy-decanoic acid, CCCCC(O)CCCCC(=O)*; Pro(trans-4-guanidino) = N=C(N)N[C@H]1CN[C@H](C(=O)O)C1; Sni = (S)-nipecotic acid, O=C([C@H]1CCCN([*:1])C1)[*:2]; Azetidine3carboxylic = O=C(C1CN([*:1])C1)[*:2]; Hyp = O=C(O)[C@@H]1C[C@@H](O)CN1; NMeF = CN[C@@H](Cc1ccccc1)C(=O)O; 2Pal = N[C@@H](Cc1ccccn1)C(=O)O; 4Pal = N[C@@H](Cc1ccncc1)C(=O)O; NMeL = CN[C@@H](CC(C)C)C(=O)O; Lauroyl = CCCCCCCCCCCC(=O)*; Decanoyl = CCCCCCCCCC(=O)*; dOrn = NCCC[C@@H](N)C(=O)O; 3Amb = NCc1cccc(C(=O)O)c1; Octanoyl = CCCCCCCC(=O)*; dAze = O=C(O)[C@H]1CCN1; FrL = not defined here; Hexanoyl = CCCCCC(=O)*; Oct = not defined here; Sar = CNCC(=O)O

T1: natriuretic peptide receptor-B (human)
T1 chain: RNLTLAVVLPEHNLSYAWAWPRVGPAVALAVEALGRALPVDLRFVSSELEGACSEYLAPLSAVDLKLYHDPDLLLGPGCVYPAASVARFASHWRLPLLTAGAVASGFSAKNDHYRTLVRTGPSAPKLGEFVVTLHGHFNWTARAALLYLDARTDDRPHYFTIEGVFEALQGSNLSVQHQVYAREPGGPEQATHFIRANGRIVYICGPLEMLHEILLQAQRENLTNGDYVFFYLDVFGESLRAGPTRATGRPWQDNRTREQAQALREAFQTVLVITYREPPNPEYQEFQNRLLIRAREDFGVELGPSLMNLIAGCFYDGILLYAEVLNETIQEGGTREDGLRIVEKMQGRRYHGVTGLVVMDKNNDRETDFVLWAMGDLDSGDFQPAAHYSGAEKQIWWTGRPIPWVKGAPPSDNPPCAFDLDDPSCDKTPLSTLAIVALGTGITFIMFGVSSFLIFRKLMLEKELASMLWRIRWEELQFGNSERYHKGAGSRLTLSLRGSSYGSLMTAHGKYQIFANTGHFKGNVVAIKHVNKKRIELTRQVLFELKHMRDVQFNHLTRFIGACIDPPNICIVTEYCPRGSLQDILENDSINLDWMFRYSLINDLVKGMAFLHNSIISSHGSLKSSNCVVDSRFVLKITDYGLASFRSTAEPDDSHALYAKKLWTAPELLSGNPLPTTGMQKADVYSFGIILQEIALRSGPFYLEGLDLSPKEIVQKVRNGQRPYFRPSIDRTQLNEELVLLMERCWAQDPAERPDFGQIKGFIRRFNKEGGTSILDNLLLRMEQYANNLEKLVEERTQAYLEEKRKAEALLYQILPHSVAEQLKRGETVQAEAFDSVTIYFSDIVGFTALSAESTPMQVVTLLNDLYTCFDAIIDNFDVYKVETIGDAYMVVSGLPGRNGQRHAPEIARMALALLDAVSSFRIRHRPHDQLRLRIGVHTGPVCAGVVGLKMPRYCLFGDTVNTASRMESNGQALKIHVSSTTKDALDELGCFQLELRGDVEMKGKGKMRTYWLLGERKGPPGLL


Target: T1, natriuretic peptide receptor-B
Test: cell-based or functional assay

Binder | EC50 group, cGMP in GTM-3 cells [µM]
Lauroyl-FRL[Hyp]LDRI-NH2 (not fully specified (some residues); printed as 832-Phe-arg-Leu-Hyp-Leu-Asp-Arg-Ile-NH2) [JAL-1246] | ≤ 15
Hexanoyl-[3Amb]FGLKLDRIS[Ebe]-NH2 (SMILES CCCCCC(=O)NCc1cccc(C(=O)N[C@@H](Cc2ccccc2)C(=O)NCC(=O)N[C@@H](CC(C)C)C(=O)N[C@@H](CCCCN)C(=O)N[C@@H](CC(C)C)C(=O)N[C@@H](CC(=O)O)C(=O)N[C@@H](CCCNC(=N)N)C(=O)N[C@H](C(=O)N[C@@H](CO)C(=O)N[C@@H](CSC)C(N)=O)[C@@H](C)CC)c1) [JAL-0543] | ≤ 15
[Oct][Sni][FrL][Hyp]LDRI-NH2 (reading uncertain; also: printed as Oct-Sni-FrL-Hyp-Leu-Asp-Arg-Ile-NH2) [JAL-1248] | ≤ 5
Octanoyl-AFGL[Pro(trans-4-NH2)]LDRI-NH2 (not fully specified (some residues); printed as Occ-ala-Phe-Gly-Leu-Tap-Leu-Asp-Arg-Ile-NH2) [JAL-1249] | ≤ 1
Octanoyl-AFRL[Pro(trans-4-NH2)]LDRI-NH2 (not fully specified (some residues); printed as Occ-ala-Phe-arg-Leu-Tap-Leu-Asp-Arg-Ile-NH2) [JAL-1250] | ≤ 1
Octanoyl-AFLL[Pro(trans-4-NH2)]DRI-NH2 (not fully specified (some residues); printed as Occ-ala-Phe-leu-Leu-Tap-Asp-Arg-Ile-NH2) [JAL-1251] | ≤ 1
Octanoyl-AFSL[Hyp][NMeL]DRI-NH2 (not fully specified (some residues); printed as Occ-ala-Phe-ser-Leu-Hyp-Nml-Asp-Arg-Ile-NH2) [JAL-1252] | ≤ 1
Octanoyl-[Sni]FSL[Hyp][NMeL]DRI-NH2 (not fully specified (some residues); printed as Occ-Sni-Phe-ser-Leu-Hyp-Nml-Asp-Arg-Ile-NH2) [JAL-1253] | ≤ 5
Octanoyl-[Sni]FKL[Hyp][NMeL]DRI-NH2 (not fully specified (some residues); printed as Occ-Sni-Phe-lys-Leu-Hyp-Nml-Asp-Arg-Ile-NH2) [JAL-1254] | ≤ 1
Octanoyl-[Sni]FRL[Hyp][NMeL]DRI-NH2 (not fully specified (some residues); printed as Occ-Sni-Phe-arg-Leu-Hyp-Nml-Asp-Arg-Ile-NH2) [JAL-1255] | ≤ 1
Octanoyl-[Sni]XLL[Hyp][NMeL]DRI-NH2 (not fully specified (some residues); printed as Occ-Sni-Mpa-leu-Leu-Hyp-Nml-Asp-Arg-Ile-) [JAL-1256] | ≤ 15
Octanoyl-[Sni][4Pal]LL[Hyp][NMeL]DRI-NH2 (not fully specified (some residues); printed as Occ-Sni-Ppa-leu-Leu-Hyp-Nml-Asp-Arg-Ile-NH2) [JAL-1257] | ≤ 15
Hexanoyl-G[dA]FGLKLDRI-NH2 [JAL-0631] | ≤ 15
{6071‑OH}-FRL[Hyp][NMeL]DRI-NH2 (not fully specified (some residues); printed as (6071-OH)-Phe-arg-Leu-Hyp-Nml-Asp-Arg-Ile-NH2) [JAL-1259] | ≤ 15
{6072‑OH}-FRL[Hyp][NMeL]DRI-NH2 (not fully specified (some residues); printed as (6072-OH)-Phe-arg-Leu-Hyp-Nml-Asp-Arg-Ile-NH2) [JAL-1260] | ≤ 5
Decanoyl-FRL[Hyp][NMeL]DRI-NH2 (not fully specified (some residues); printed as 5587-Phe-arg-Leu-Hyp-Nml-Asp-Arg-Ile-NH2) [JAL-1261] | ≤ 15
Octanoyl-AFGL[Tap(2Me)]LDRI-NH2 (not fully specified (some residues); printed as Occ-ala-Phe-Gly-Leu-Tap(2Me)-Leu-Asp-Arg-Ile-) [JAL-1262] | ≤ 5
Octanoyl-AFRL[Tap(2Me)]LDRI-NH2 (not fully specified (some residues); printed as Occ-ala-Phe-arg-Leu-Tap(2Me)-Leu-Asp-Arg-Ile-NH2) [JAL-1263] | ≤ 5
Octanoyl-AFLL[Tap(2Me)]LDRI-NH2 (not fully specified (some residues); printed as Occ-ala-Phe-leu-Leu-Tap(2Me)-Leu-Asp-Arg-Ile-NH2) [JAL-1264] | ≤ 5
Hexanoyl-A[dA]FGLKLDRI-NH2 [JAL-0632] | ≤ 15

Continued, values first:

EC50 group, cGMP in GTM-3 cells [µM] | Binder
≤ 1 | Octanoyl-[Sni]FXL[Hyp][NMeL]DRI-NH2 (not fully specified (some residues); printed as Occ-Sni-Phe-orn-Leu-Hyp-Nml-Asp-Arg-Ile-NH2) [JAL-1265]
≤ 5 | Octanoyl-[Sni][2Pal]LL[Hyp][NMeL]DRI-NH2 (not fully specified (some residues); printed as Occ-Sni-Opa-leu-Leu-Hyp-Nml-Asp-Arg-Ile-) [JAL-1266]
≤ 5 | Octanoyl-A[NMeF]KL[Hyp][NMeL]DRI-NH2 (not fully specified (some residues); printed as Occ-ala-Nmf-lys-Leu-Hyp-Nml-Asp-Arg-Ile-) [JAL-1268]
≤ 5 | Octanoyl-[dA][NMeF][dOrn]L[Hyp][NMeL]DRI-NH2 [JAL-1269]
≤ 5 | Octanoyl-[dA]FGL[Pro(trans-4-guanidino)]LDRI-NH2 [JAL-1270]
≤ 5 | Octanoyl-[dA]F[dR]L[Pro(trans-4-guanidino)]LDRI-NH2 [JAL-1271]
≤ 5 | Octanoyl-[dA]F[dL]L[Pro(trans-4-guanidino)]LDRI-NH2 [JAL-1272]
≤ 5 | Octanoyl-[Sar]F[dR]L[Hyp][NMeL]DRI-NH2 [JAL-1273]
≤ 5 | Octanoyl-[dAze]F[dR]L[Hyp][NMeL]DRI-NH2 [JAL-1274]
≤ 5 | Octanoyl-[Azetidine3carboxylic]F[dR]L[Hyp][NMeL]DRI-NH2 [JAL-1275]
≤ 5 | Octanoyl-[dA]F[dL]L[Eal][NMeL]DRI-NH2 [JAL-1281_01]
≤ 15 | Octanoyl-[dA]FGL[Eal][NMeL]DRI-NH2 [JAL-1282]
